Experimental data published in the supplement of paper PMC9112550, “Optimization of the antimicrobial peptide Bac7 by deep mutational scanning” (BMC Biology, 2022).

Test system: Escherichia coli TOP10
Assay: shrunken log2 fold change of peptide-encoding DNA abundance (4.5 h post-induction vs induction); higher = less antimicrobial activity (less host growth inhibition)
Conditions: time post-induction: 4.5 h; library: site-saturation at positions 5, 18, 19, 20
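Further: peptides expressed intracellularly from a pBAD plasmid library in pooled LB shake-flask culture, induced with 0.3% L-arabinose, DNA abundance read by NGS, three biological replicates, DESeq2 with apeglm shrinkage.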

Sequence	shrunken log2 fold change
RRIRMRPPRLPRPRPRPVYHPRP	-0.435
RRIRSRPPRLPRPRPRPAAPPRP	0.66
RRIRLRPPRLPRPRPRPTCKPRP	-0.0465
RRIRERPPRLPRPRPRPNGRPRP	-0.033
RRIRDRPPRLPRPRPRPPVYPRP	-0.175
RRIRHRPPRLPRPRPRPAGGPRP	-0.131
RRIRLRPPRLPRPRPRPEVGPRP	-0.0231
RRIRIRPPRLPRPRPRPRWIPRP	-0.0611
RRIRDRPPRLPRPRPRPKCWPRP	-0.00042
RRIRMRPPRLPRPRPRPKMPPRP	0.493
RRIRSRPPRLPRPRPRPFIIPRP	-0.34
RRIRCRPPRLPRPRPRPGIVPRP	-0.0688
RRIRDRPPRLPRPRPRPVCDPRP	0.696
RRIRFRPPRLPRPRPRPFIQPRP	-0.707
RRIRGRPPRLPRPRPRPRGGPRP	1.05
RRIRERPPRLPRPRPRPLFMPRP	-0.222

Sequence	shrunken log2 fold change
RRIRWRPPRLPRPRPRPNNSPRP	-0.723
RRIRVRPPRLPRPRPRPSLIPRP	-0.238
RRIRARPPRLPRPRPRPDCVPRP	0.813
RRIRMRPPRLPRPRPRPRIEPRP	-0.0903
RRIRNRPPRLPRPRPRPEIFPRP	-0.0153
RRIRHRPPRLPRPRPRPDKFPRP	-0.16
RRIRIRPPRLPRPRPRPIMEPRP	-0.216
RRIRYRPPRLPRPRPRPHNQPRP	-0.753
RRIRHRPPRLPRPRPRPGGKPRP	-0.0185
RRIRFRPPRLPRPRPRPCPLPRP	-0.183
RRIRKRPPRLPRPRPRPSVKPRP	-0.358
RRIRWRPPRLPRPRPRPCVSPRP	0.144
RRIRGRPPRLPRPRPRPFKVPRP	-0.14
RRIRQRPPRLPRPRPRPETSPRP	-0.192
RRIRRRPPRLPRPRPRPMKSPRP	0.304
RRIRERPPRLPRPRPRPIACPRP	-0.23
